From the supplement of paper PMC11246515
± gives the standard deviation of the averaged measurements.

Test: total protein half-life in vivo (active degradation + dilution); higher = more stable protein
[1] = E. coli NCM3722 delta-clpP delta-lon delta-hslV, growth: N-lim chemostat, doubling time 6 h
[2] = E. coli NCM3722 delta-clpP, growth: N-lim chemostat, doubling time 6 h
[3] = E. coli NCM3722 delta-hslV, growth: N-lim chemostat, doubling time 6 h
[4] = E. coli NCM3722 delta-lon, growth: N-lim chemostat, doubling time 6 h
[5] = E. coli NCM3722 delta-smpB, growth: N-lim chemostat, doubling time 6 h
[6] = wild type E. coli NCM3722, growth: C-lim chemostat, doubling time 3 h
[7] = wild type E. coli NCM3722, growth: C-lim chemostat, doubling time 6 h
[8] = wild type E. coli NCM3722, growth: C-lim chemostat, doubling time 12 h
[9] = wild type E. coli NCM3722, growth: N-lim chemostat, doubling time 6 h
[10] = wild type E. coli NCM3722, growth: N-lim chemostat, doubling time 12 h
[11] = wild type E. coli NCM3722, growth: P-lim chemostat, doubling time 6 h
[12] = wild type E. coli NCM3722, growth: P-lim chemostat, doubling time 12 h

Sequence | total protein half-life in vivo [1] [h] | total protein half-life in vivo [2] [h] | total protein half-life in vivo [3] [h] | total protein half-life in vivo [4] [h] | total protein half-life in vivo [5] [h] | total protein half-life in vivo [6] [h] | total protein half-life in vivo [7] [h] | total protein half-life in vivo [8] [h] | total protein half-life in vivo [9] [h] | total protein half-life in vivo [10] [h] | total protein half-life in vivo [11] [h] | total protein half-life in vivo [12] [h]
MQNRLTIKDIARLSGVGKSTVSRVLNNESGVSQLTRERVEAVMNQHGFSPSRSARAMRGQSDKVVAIIVTRLDSLSENLAVQTMLPAFYEQGYDPIMMESQFSPQLVAEHLGVLKRRNIDGVVLFGFTGITEEMLAHWQSSLVLLARDAKGFASVCYDDEGAIKILMQRLYDQGHRNISYLGVPHSDVTTGKRRHEAYLAFCKAHKLHPVAALPGLAMKQGYENVAKVITPETTALLCATDTLALGASKYLQEQRIDTLQLASVGNTPLMKFLHPEIVTVDPGYAEAGRQAACQLIAQVTGRSEPQQIIIPATLS | 5.44 ± 0.36 | 5.57 | 5.41 ± 1 | 5.53 ± 0.32 | 4.96 ± 0.47 | 2.888 ± 0.0064 | 5.6 ± 0.49 | 12.4 ± 2.4 | 5.0404 ± 0.0037 | 10.5 ± 1.1 | 4.72 ± 0.12 | 10.2 ± 1.8
MAQLYFYYSAMNAGKSTALLQSSYNYQERGMRTVVYTAEIDDRFGAGKVSSRIGLSSPAKLFNQNSSLFDEIRAEHEQQAIHCVLVDECQFLTRQQVYELSEVVDQLDIPVLCYGLRTDFRGELFIGSQYLLAWSDKLVELKTICFCGRKASMVLRLDQAGRPYNEGEQVVIGGNERYVSVCRKHYKEALQVDSLTAIQERHRHD | 4.73 ± 0.29 | 4.06 ± 0.5 | 3.97 ± 0.089 | 5.17 ± 1.3 | 3.82 ± 0.42 | 2.47 ± 0.051 | 4.98 ± 0.062 | 10.3 ± 0.56 | 3.86 ± 0.31 | 6.8 ± 0.12 | 5.92 ± 0.58 | 11.7 ± 0.69
MQKVVLATGNVGKVRELASLLSDFGLDIVAQTDLGVDSAEETGLTFIENAILKARHAAKVTALPAIADDSGLAVDVLGGAPGIYSARYSGEDATDQKNLQKLLETMKDVPDDQRQARFHCVLVYLRHAEDPTPLVCHGSWPGVITREPAGTGGFGYDPIFFVPSEGKTAAELTREEKSAISHRGQALKLLLDALRNG | 4.93 ± 0.34 | 4.228 ± 0.016 | 4.12 ± 0.13 | 4.93 ± 0.076 | 3.951 ± 0.0058 | 3.16 ± 0.17 | 5.1 ± 0.19 | 8.51 ± 0.84 | 4 ± 0.17 | 6.87 ± 0.21 | 5.14 ± 0.35 | 10.7 ± 0.027
MKPRQRQAAILEYLQKQGKCSVEELAQYFDTTGTTIRKDLVILEHAGTVIRTYGGVVLNKEESDPPIDHKTLINTHKKELIAEAAVSFIHDGDSIILDAGSTVLQMVPLLSRFNNITVMTNSLHIVNALSELDNEQTILMPGGTFRKKSASFHGQLAENAFEHFTFDKLFMGTDGIDLNAGVTTFNEVYTVSKAMCNAAREVILMADSSKFGRKSPNVVCSLESVDKLITDAGIDPAFRQALEEKGIDVIITGESNE | – | 6.55 ± 0.26 | 5.66 ± 0.25 | 6.11 ± 1 | 6.36 ± 0.59 | 3.36 ± 0.46 | 6.64 ± 0.39 | 12.6 ± 2.2 | 6.06 ± 0.35 | 13 ± 0.2 | 5.82 ± 0.56 | 12.5 ± 0.15
MLILLGYLVVLGTVFGGYLMTGGSLGALYQPAELVIIAGAGIGSFIVGNNGKAIKGTLKALPLLFRRSKYTKAMYMDLLALLYRLMAKSRQMGMFSLERDIENPRESEIFASYPRILADSVMLDFIVDYLRLIISGHMNTFEIEALMDEEIETHESEAEVPANSLALVGDSLPAFGIVAAVMGVVHALGSADRPAAELGALIAHAMVGTFLGILLAYGFISPLATVLRQKSAETSKMMQCVKVTLLSNLNGYAPPIAVEFGRKTLYSSERPSFIELEEHVRAVKNPQQQTTTEEA | – | – | – | – | – | 1.32 ± 0.061 | 1.57 | 2.1 | – | – | – | –
MIHSSVKRWGNSPAVRIPATLMQALNLNIDDEVKIDLVDGKLIIEPVRKEPVFTLAELVNDITPENLHENIDWGEPKDKEVW [P0AE72] | 5.19 ± 0.15 | 2.31 ± 0.28 | 2.17 | 3.17 | 2.35 | – | 5.66 | – | 1.94 | 5.05 ± 2.4 | 1.3 | 4.48
MNRFIMANSQQCLGCHACEIACVMAHNDEQHVLSQHHFHPRITVIKHQQQRSAVTCHHCEDAPCARSCPNGAISHVDDSIQVNQQKCIGCKSCVVACPFGTMQIVLTPVAAGKVKATAHKCDLCAGRENGPACVENCPADALQLVTDVALSGMAKSRRLRTARQEHQPWHASTAAQEMPVMSKVEQMQATPARGEPDKLAIEARKTGFDEIYLPFRADQAQREASRCLKCGEHSVCEWTCPLHNHIPQWIELVKAGNIDAAVELSHQTNTLPEITGRVCPQDRLCEGACTIRDEHGAVTIGNIERYISDQALAKGWRPDLSHVTKVDKRVAIIGAGPAGLACADVLTRNGVGVTVYDRHPEIGGLLTFGIPSFKLDKSLLARRREIFSAMGIHFELNCEVGKDVSLDSLLEQYDAVFVGVGTYRSMKAGLPNEDAPGVYDALPFLIANTKQVMGLEELPEEPFINTAGLNVVVLGGGDTAMDCVRTALRHGASNVTCAYRRDEANMPGSKKEVKNAREEGANFEFNVQPVALELNEQGHVCGIRFLRTRLGEPDAQGRRRPVPVEGSEFVMPADAVIMAFGFNPHGMPWLESHGVTVDKWGRIIADVESQYRYQTTNPKIFAGGDAVRGADLVVTAMAEGRHAAQGIIDWLGVKSVKSH | 5.28 | – | – | – | – | – | – | 1.34 | – | – | – | –
MTTLKLDTLSDRIKAHKNALVHIVKPPVCTERAQHYTEMYQQHLDKPIPVRRALALAHHLANRTIWIKHDELIIGNQASEVRAAPIFPEYTVSWIEKEIDDLADRPGAGFAVSEENKRVLHEVCPWWRGQTVQDRCYGMFTDEQKGLLATGIIKAEGNMTSGDAHLAVNFPLLLEKGLDGLREEVAERRSRINLTVLEDLHGEQFLKAIDIVLVAVSEHIERFAALAREMAATETRESRRDELLAMAENCDLIAHQPPQTFWQALQLCYFIQLILQIESNGHSVSFGRMDQYLYPYYRRDVELNQTLDREHAIEMLHSCWLKLLEVNKIRSGSHSKASAGSPLYQNVTIGGQNLVDGQPMDAVNPLSYAILESCGRLRSTQPNLSVRYHAGMSNDFLDACVQVIRCGFGMPAFNNDEIVIPEFIKLGIEPQDAYDYAAIGCIETAVGGKWGYRCTGMSFINFARVMLAALEGGHDATSGKVFLPQEKALSAGNFNNFDEVMDAWDTQIRYYTRKSIEIEYVVDTMLEENVHDILCSALVDDCIERAKSIKQGGAKYDWVSGLQVGIANLGNSLAAVKKLVFEQGAIGQQQLAAALADDFDGLTHEQLRQRLINGAPKYGNDDDTVDTLLARAYQTYIDELKQYHNPRYGRGPVGGNYYAGTSSISANVPFGAQTMATPDGRKAHTPLAEGASPASGTDHLGPTAVIGSVGKLPTAAILGGVLLNQKLNPATLENESDKQKLMILLRTFFEVHKGWHIQYNIVSRETLLDAKKHPDQYRDLVVRVAGYSAFFTALSPDAQDDIIARTEHML | 4.17 | – | – | – | – | – | – | – | – | – | – | –
